# Experimental data published in US20220143148A1, “COMPOSITIONS AND METHODS FOR MODULATING CGRP SIGNALING TO REGULATE INTESTINAL INNATE LYMPHOID CELLS” (The Broad Institute, Inc., priority 2019, published 2022).
# B1: OVA (protein, UniProt P01012 2-386, looked up)
# Ovalbumin: GSIGAASMEFCFDVFKELKVHHANENIFYCPIAIMSALAMVYLGAKDSTRTQINKVVRFDKLPGFGDSIEAQCGTSVNVHSSLRDILNQITKPNDVYSFSLASRLYAEERYPILPEYLQCVKELYRGGLEPINFQTAADQARELINSWVESQTNGIIRNVLQPSSVDSQTAMVLVNAIVFKGLWEKAFKDEDTQAMPFRVTEQESKPVQMMYQIGLFRVASMASEKMKILELPFASGTMSMLVLLPDEVSGLEQLESIINFEKLTEWTSSNVMEERKIKVYLPRMKMEEKYNLTSVLMAMGITDVFSSSANLSGISSAESLKISQAVHAAHAEINEAGREVVGSAEAGVDAASVSEEFRADHPFLFCIKHIATNAVLFFGRCVSP
# System: small intestinal immune cells
# Assay: Droplet-based scRNA-seq of small intestinal immune cells (LP and PP), OVA vs PBS, clustering and differential expression
# Type: in vivo, mouse
# Conditions: PP; cluster ID 8; OVA vs PBS
# Text: To comprehensively characterize small intestinal immune cells, Applicants generated scRNA-Seq profiles for 58,067 immune cells collected from lamina propria (LP) and Peyer's patch (PP) regions at steady state and after induction of a type 2 inflammatory reaction to ovalbumin (OVA) (Brandt et al., 2003) (FIGS. 1A and 8A). To ensure sufficient representation of rare cells, Applicants combined a normalization strategy—removing by flow sorting either a portion of IgD+ naïve B cells, which are the most abundant cell type in PPs, or all CD19+ and CD3+ T cells (FIG. 8B, Methods)—with profiling of a sufficiently large number of cells number (P>0.99 to recover at least 15 cells from each cluster, Methods) by massively parallel scRNA-seq (Haber et al., 2017) (Methods). Applicants obtained 36,797 and 21,270 high quality cells passing initial filtering (Methods) from PP and LP regions, respectively.
# Overall, Applicants annotated 27 cell subsets across the two compartments, spanning T cells, B cells, ILCs, dendritic cells (DCs), myeloid cells and stromal cells, in frequencies ranging from 0.07% to 14%. Briefly, Applicants first partitioned the cells from the PP regions by unsupervised clustering (Methods) into 46 clusters, retained the 97% of cells that were robustly assigned cell identities in each cluster (Methods), assigned the cells from the LP regions to the 46 clusters using a classifier (Methods), and visualized the data with scvis (Ding et al., 2018), a deep generative model-based method (FIGS. 1B and 8C, Methods). Next, Applicants identified genes that were differentially expressed between the cells in each cluster and the remaining cells (Table 1, Methods), as well as between pairs of clusters (Table 2), to elucidate identities of similar cell types/states. Applicants excluded from downstream analysis clusters mostly consisting of contaminants from epithelium, likely doublets, or cells with a small number of Unique Molecular Identifiers (UMIs) (FIGS. 1C and 8D), or lacking distinct markers (Methods). Altogether, Applicants retained 27 clusters spanning 85% of the cells and each associated with distinct marker genes (FIG. 8E, Methods).
# To induce allergic reaction to OVA, 6 to 7 weeks old mice were sensitized twice, two weeks apart, with 50 μg of OVA plus 1 mg of aluminum potassium sulfate adjuvant via intraperitoneal injection. Two weeks later, mice were orally administered with 50 mg of OVA on every other day for a total of five times. 1 μg of α-CGRP peptide was administered simultaneously when indicated. Mice were deprived of food for 3-4 hours in cages with wood chip bedding for limiting antigen degradation in the stomach before each intragastric challenge.
# Isolation of cells from Peyer's patches (PPs). Peyer's patches (PPs) were carefully dissected from the small intestine under a stereo microscope using a fine scissor, pierced once with a fine forcep. Tissues were digested in freshly made digestion buffer (RPMI-1640 containing 100 μg/ml Liberase™ and 50 μg/ml DNase I at 37° C. on a roto-mixer. After 15 min, tissues were very gently mixed using a 1 ml pipette. The supernatant was collected and added to ice-cold MACS buffer (pH 7.4; PBS plus 2% FCS and 2 mM EDTA). Pre-warmed (37° C.) fresh digestion buffer was added to the remaining tissues. After rotation at 37° C. for 15 min, the mixture was vigorously mixed using a 1 ml pipette for 1 min. Supernatants from the two steps were combined and passed through 70 μm filters and stained for FACS (below).
# Isolation of cells from the lamina propria (LP). The small intestines were opened longitudinally and washed in ice-cold PBS. For scRNA-seq, roughly 0.5 cm of fragments from each of the distal, middle and proximal regions without visible PPs were collected. Epithelial cells were dissociated by tissue rotation in pre-warmed (37° C.) PBS containing 10 mM EDTA at 37° C. for 15 min, followed by additional incubation on ice for 15 min. Tissues were then shaken vigorously. […]
molecule,measurement,value
B1,Fosl2 LN (average fold change),−0.358
same,Ftl1 LN (average fold change),−0.171
same,Gadd45b LN (average fold change),−0.563
same,Gimap1 LN (average fold change),0.283
same,Gimap6 LN (average fold change),0.272
same,Gimap9 LN (average fold change),0.367
same,Gnai2 LN (average fold change),−0.261
same,Gramd1a LN (average fold change),0.460
same,Gramd3 LN (average fold change),−0.502
same,Gzma LN (average fold change),0.340
same,H2-K1 LN (average fold change),0.192
same,H3f3b LN (average fold change),−0.185
same,Hcst LN (average fold change),0.174
same,Hist1h1c LN (average fold change),0.586
same,Hist1h1e LN (average fold change),1.277
same,Icam1 LN (average fold change),−0.819
same,Id2 LN (average fold change),0.467
same,Ier2 LN (average fold change),−0.235
same,Ier5l LN (average fold change),−1.422
same,Ifi203 LN (average fold change),0.402
same,Ifrd1 LN (average fold change),−0.708
same,Igha LN (average fold change),0.514
same,Igkc LN (average fold change),0.390
same,Ikzf2 LN (average fold change),−0.467
same,Il2rg LN (average fold change),−0.226
same,Il16 LN (average fold change),0.455
same,Jun LN (average fold change),0.210
same,Jund LN (average fold change),−0.703
same,Kdm2b LN (average fold change),−0.379
same,Kdm6b LN (average fold change),−0.833
same,Klf4 LN (average fold change),−0.524
same,Klf6 LN (average fold change),0.166
same,Klrb1c LN (average fold change),0.233
same,Klrb1f LN (average fold change),0.487
same,Klrc1 LN (average fold change),0.392
same,Klrc2 LN (average fold change),0.396
same,Klrd1 LN (average fold change),0.261
same,Klre1 LN (average fold change),0.295
same,Klrk1 LN (average fold change),0.213
same,Lax1 LN (average fold change),0.486
same,Litaf LN (average fold change),−0.518
same,Lmna LN (average fold change),−1.022
same,Maff LN (average fold change),−0.445
same,Mcpt1 LN (average fold change),1.756
same,Mir142hg LN (average fold change),−0.715
same,Ms4a4b LN (average fold change),0.271
same,Ms4a6b LN (average fold change),0.490
same,Myl6 LN (average fold change),0.199
same,Nabp1 LN (average fold change),−0.167
same,Ncr1 LN (average fold change),0.265
same,Ndel1 LN (average fold change),−0.337
same,Neat1 LN (average fold change),0.275
same,Neurl3 LN (average fold change),−0.244
same,Nfil3 LN (average fold change),0.490
same,Nfkb1 LN (average fold change),−0.244
same,Nfkbia LN (average fold change),−0.579
same,Nfkbid LN (average fold change),−1.010
same,Nfkbie LN (average fold change),−0.483
same,Nfkbiz LN (average fold change),−0.640
same,Ninj1 LN (average fold change),−0.512
same,Nkg7 LN (average fold change),0.194
same,Nr4a1 LN (average fold change),−0.415
same,Nr4a2 LN (average fold change),−0.530
same,Nr4a3 LN (average fold change),−0.808
same,Odc1 LN (average fold change),−0.540
same,P2ry10 LN (average fold change),−0.196
same,Phlda1 LN (average fold change),−0.867
same,Pim1 LN (average fold change),−0.358
same,Pnrc1 LN (average fold change),−0.302
same,Ppp1r15a LN (average fold change),−0.355
same,Ppp1r16b LN (average fold change),−0.367
same,Ppp3cc LN (average fold change),0.528
same,Prr7 LN (average fold change),−0.910
same,Ptp4a2 LN (average fold change),−0.243
